Tests used:
[1] = target: FLT3-transfected 3T3 cells (murine FLT3 extracellular portion/human Fms chimera and/or full-length human FLT3; not told apart); test: cell-based or functional assay
[2] = test system: CB CD34+ cells; test: cell cycle analysis of CD34+ cells (propidium iodide); details: CD34+ cells cultured 3 days; mean ± SE
Description: Cells were analyzed for their DNA content by staining with propidium iodide (Sigma). The cells were cultured in ex vivo cultures as described, for 3, 6, 10, and 13 days as indicated. At each time point, the cells were collected, resuspended to a final concentration of 0.1-1×10^6 cells/mL, and incubated with 0.1% Triton X 100 (Sigma) for 20 minutes on ice. 50 mg/mL propidium iodide (PI) were added before analysis. Flow cytometeric analyses were performed using FACSort (Becton Dickinson, San Jose, Calif.).
The cell cycle status of CB CD34^+ cells was analyzed in 5 indepenent experiments with cells cultured for 3-13 days with either Dl-FRIL or a cytokine combination (SCF, Flt3-L, G-CSF, IL-3, IL-6) (Bhatia et al., J. Exp. Med. 186:619-624, 1997; Conneally et al., Proc. Natl. Acad. Sci. USA 94:9836-9841, 1997).

[3] = test system: CB CD34+ progenitor cells; test: ex vivo culture of CB CD34+ cells: total cell numbers and CFU assay; format: cell-based, human
Description: Human umbilical cord blood (CB) samples were obtained from full term deliveries. The blood samples were diluted 1:1 in phosphate-buffered-saline (PBS) without Mg^+2/Ca^+2, supplemented with 10% fetal bovine serum (FBS). Low density mononuclear cells were collected after standard separation on Ficoll-Paque (Pharmacia Biotech, Uppsala, Sweden), and washed in RPMI with 10% FBS. Some samples were frozen in 10% DMSO, while the others were used fresh. Enrichment of CD34^+ cells was performed with mini MACS separation kit (Miltenyi Biotec, Bergisch Gladbach, Germany) according to the manufacturer's instructions. The purity of the enriched CD34^+ cells was 60-80% using one column. […]
Ex vivo Cultures Human CD34^+ enriched cells were cultured in 24 well plates (2-4×10^5 cells in 0.5 mL), containing RPMI supplemented with 10% FBS+1% BSA. […] After 3, 6, 10 and 13 days, the cells were collected, counted, analyzed by FACS, seeded in to semisolid cultures and transplanted into NOD-SCID mice.
Semisolid cultures were performed in order to detect the levels of human progenitors in ex vivo cultures, and in the marrow of transplanted mice. […] The cultures were incubated at 37° C. in a humidified atmosphere containing 5% CO2 and scored 14 days later with an inverted microscope for myeloid, erythroid, and mixed colonies by morphologic criteria. […]

[4] = test system: human cord blood progenitors; test: cord blood mononuclear cell liquid culture followed by methylcellulose colony assay; format: cell-based; details: for Blast colonies / Erythroid colonies / Mix colonies / Myeloid colonies: 40 ng/ml, ± SD of triplicate
Description: To do this, umbilical cord blood from healthy donors was collected in 100 units/ml of heparin. Cord blood mononuclear cells (CB mnc) were isolated within 4 hours of collection by separation using the density separation medium sold under the trademark of FICOLL-PAQUE® (Pharmacia Biotech, Piscataway, N.J.) following manufacturer's instruction and washed in X-VIVO 10 medium (BioWhittaker, Walkersville, Md.). CB mnc were then cultured in six well tissue culture plates (Corning Inc., Corning, N.Y.) at a concentration of 200,000 cells/mL in a volume of 4 mL of X-VIVO 10 (i.e., 800,000 cells total per well). Dl-FRIL and/or recombinant E. coli Flt3-L (recFL; BioSource International, Camarillo, Calif.) were added at a concentration of 40 ng/ml at the outset (with no addition as a control). Cultures were incubated in humidified chambers without medium changes for up to 29 days.
After incubation, the cultured CB mnc cells were harvested by washing in X-VIVO 10 (i.e., harvested cells were pelleted and resuspended in X-VIVO 10) to remove the Dl-FRIL and/or recFL, and then determining viable cell number by trypan blue (Sigma) exclusion.
The progenitor capacity of the blast-like colonies was examined further for cells initially cultured for 3 weeks in either Dl-FRIL, recFL, no addition, or Dl-FRIL+recFL, and then without these regulators for an additional 6 weeks in a methylcellulose colony assay. […] Viable cells were harvested from the cells initially cultured in Dl-FRIL alone and replated in an colony assay (in methylcellulose colony assay medium) for an additional 4 weeks.

[5] = test system: FLT3 receptor; format: cell-based; details: murine chimeric or full length human receptor
Description: A specific and quantitative biological assay using NIH 3T3 fibroblasts transfected either with a chimeric receptor having the extracellular portion of the murine FLT3 receptor combined with the intracellular portion of the human Fms receptor (Dosil et al., Mol. Cell. Biol. 13(10):6572-6585 1993) or with the full length human receptor (Small et al., Proc. Natl. Acad. Sci. USA 91:459-463, 1994) can be used to evaluate lectin biological activity during purification. Serial two-fold dilutions of lectin samples across rows of a 96 well plate allowed for greater than a thousand-fold range to access FLT3 3T3 biological activity.
Specifically, 3T3 cells cultured in tissue culture plates (Becton Dickinson Labware, Lincoln Park, N.J.) were removed from the plates by washing cells twice in Hank's buffered saline solution (HBSS; Gibco Laboratories, Grand Island, N.Y.). […] Proliferation and cell survival was quantitated by addition of XTT (2, 3-bis[Methoxy-4-nitro-5sulfophenyl]-2H-tetrazolium-5 carboxanilide inner salt) (Diagnostic Chemicals Ltd, Charlottetown, Prince Edward Island, Canada), which is a tetraformazan salt cleaved by actively respiring cells (Roehm et al., J. Immunol. Methods 142: 257-265, 1991). […] One unit of biological activity was defined as the reciprocal dilution at which half-maximal stimulation of cells is detected.

[6] = in vivo; cited from earlier work
[7] = test system: Flt3-expressing 3T3 cells; test: Flt3 3T3 assay during purification of Pv-FRIL; format: cell-based; details: by itself at <1 ng/mL
Description: To create factor-dependence for receptor-transfected 3T3 cells, growth conditions were compromised to permit only ligands to rescue cells from death. To do this, 3T3 cell lines were assayed in 96 well plates (Becton Dickinson Labware, Lincoln Park, N.J.) containing 3,000 cells in 100 μL of serum-free medium consisting of 10% AIMV (Life Technologies) and 90% DMEM. In each experiment, samples were serially diluted two-fold across rows starting at a 1:10 dilution. Viable cells were quantitated after 3-5 days by XTT (2,3-bis[Methoxy-4-nitro-5sulfophenyl]-2H-tetrazolium-5 carboxanilide inner salt) (Sigma, St. Louis, Mo.) (Roehm et al., supra). Relative activity (units/ml) and specific activity (units/mg) are defined as the reciprocal dilution at which half-maximal stimulation of cells was detected.
Each batch of PHA-LCM was generated in serum-free medium with cells from individual normal donors. To start purification, the PHA-LCM with Flt3 3T3 activity was pooled in 30 liter lots with approximately 10^7 Flt3 3T3 units. Twenty-five liters of PHA-LCM was diafiltered into 50 mM Tris-HCl, pH 7.6, 50 mM NaCl and then concentrated to 2-2.5 liters by tangential flow ultrafiltration on a 10 kDa molecular weight cutoff membrane (Pellicon, Millipore, Bedford, Mass.). A Blue-sepharose FF (Pharmacia Biotech) column (10 cm×15 cm) was equilibrated with 50 mM Tris-HCl, pH 7.4,50 mM NaCl. […]

Molecule “Pv-FRIL (native, from Phaseolus vulgaris red kidney bean extract / purified from PHA-LCM)” has a Specific Activity (u/mg) in the Flt3 3T3 assay, Superdex 75 step [1] of 244000 units/mg.

B1: recFL: recombinant E. coli Flt3-L (FLT3 ligand) (protein, UniProt P49771 27-235, looked up)
Fms-related tyrosine kinase 3 …: TQDCSFQHSPISSDFAVKIRELSDYLLQDYPVTVASNLQDEELCGGLWRLVLAQRWMERLKTVAGSKMQGLLERVNTEIHFVTKCAFQPPPSCLRFVQTNISRLLQETSEQLVALKPWITRQNFSRCLELQCQPDSSTLPPPWSPRPLEATAPTAPQPPLLLLLLLPVGLLLLAAAWCLHWQRTRRRTPRPGEQVPPVPSPQDLLLVEH
For B1, the G0/G1 [2] was 68.4 ± 2.1 percentage, the SG2M [2] was 22.2 ± 5.4 percentage and the “Sub G0/G1” value [2] was 9.4 ± 3.3 percentage. The “increase in number of total cells” value ([3]; 10 days of suspension culture, FIG. 34A) was 4.5 fold, the “percentage of CFU-GEMM” value ([3]; first factor 6 days, then cytokines) was 18.2% and the “colonies after 21 days culture and 6 weeks methylcellulose colony assay” value [4] was “No colonies were detected”. The “fewer mature colonies than with FRIL or FRIL plus recFL” value ([4]; cells cultured 15 days) was 24 fold, the Blast colonies ([4]; day 15 of culture) was 0 and the Erythroid colonies ([4]; day 15 of culture) was 0. For the same molecule, the Mix colonies ([4]; day 15 of culture) was 0, the Myeloid colonies ([4]; day 15 of culture) was 40 ± 69 and the Blast colonies ([4]; day 21 of culture) was 0. The Erythroid colonies ([4]; day 21 of culture) was 0, the Mix colonies ([4]; day 21 of culture) was 0 and the Myeloid colonies ([4]; day 21 of culture) was 0. It also gave a Blast colonies ([4]; day 29 of culture) of 0, an Erythroid colonies ([4]; day 29 of culture) of 0 and a Mix colonies ([4]; day 29 of culture) of 0. The Myeloid colonies ([4]; day 29 of culture) was 0 and the “rescue of FLT3-transfected 3T3 cells from death” value [5] was “rescue FLT3-transfected cells from death”.

B2: peanut agglutinin (PNA): dietary lectin from raw peanuts (protein, UniProt P02872 24-273, looked up)
Galactose-binding lectin: AETVSFNFNSFSEGNPAINFQGDVTVLSNGNIQLTNLNKVNSVGRVLYAMPVRIWSSATGNVASFLTSFSFEMKDIKDYDPADGIIFFIAPEDTQIPAGSIGGGTLGVSDTKGAGHFVGVEFDTYSNSEYNDPPTDHVGIDVNSVDSVKTVPWNSVSGAVVKVTVIYDSSTKTLSVAVTNDNGDITTIAQVVDLKAKLPERVKFGFSASGSLGGRQIHLIRSWSFTSTLITTTRRSIDNNEKKIMNMASA
In the case of B2, the “level in the blood” value [6] is listed as 1000 to 5000 ng/mL.

B3: recombinant hIL1-α: exogenous recombinant human interleukin 1-α (protein, UniProt P01583 113-271, looked up)
Interleukin-1 alpha: SAPFSFLSNVKYNFMRIIKYEFILNDALNQSIIRANDQYLTAAALHNLDEAVKFDMGAYKSSKDDAKITVILRISKTQLYVTAQDEDQPVLLKEMPEIPKTITGSETNLLFFWETHGTKNYFTSVAHPNLFIATKQDYWVCLAGGPPSITDFQILENQA
For B3, the “stimulatory activity on Flt3 3T3 cells” value [7] was “no stimulatory activity”.

Source: US6991794B1, “Progenitor cell preservation factors and methods for and products of their use” (ImClone Systems Incorporated, priority 1997, dated 2006)
